Drawing on the supplement of paper PMC9233669, this text covers self-aminoacylation for 47 sequences.

Variants at the floor of the assay were thinned out.

One data set relates to biotinyl-Trp-oxazolone. Kind of data set: self-aminoacylation, catalytic enhancement (BWO) (fold over background); higher = more active; k-Seq, kA / k0A0; sequences stand for … in GGGAAUGGAUCCACAUCUACGAAUUC…UUCACUGCAGACUUGACGAAGCUG
In short, it runs like this: (§1)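 Mutagenized RNA pools with a 21-nt variable region (0.43 μM) were reacted with each biotinyl-aminoacyl-oxazolone at 2–1250 μM for 90 minutes at room temperature, in 50 μL HEPES/NaCl/KCl/MgCl2/CaCl2 buffer containing 5% acetonitrile at pH 6.9–7.0. RNA captured on streptavidin was quantified by triplicate qPCR and by Illumina sequencing. The fraction reacted for each sequence was fit to a pseudo-first-order model with bootstrapping, and catalytic enhancement is the median kA divided by the uncatalyzed rate, taken as the low-activity peak of a bimodal Gaussian fit.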

The subject of another data set is biotinyl-Phe-oxazolone. Kind of data set: self-aminoacylation, catalytic enhancement (BFO) (fold over background); higher = more active; k-Seq, kA / k0A0; sequences stand for … in GGGAAUGGAUCCACAUCUACGAAUUC…UUCACUGCAGACUUGACGAAGCUG
In short, it runs like this: as §1

For the sequence “AAGAUUGCUAAUAGUCGCCAG [Fam3.1 aminoacylation ribozyme variant]”, in the data set with biotinyl-Trp-oxazolone, the self-aminoacylation stood at 2.02. Take “AAGAUUGCUAAUUGUCGCAAG [Fam3.1 aminoacylation ribozyme variant]”: the self-aminoacylation with biotinyl-Trp-oxazolone is 3.92. Turning to “AAGCUUGCUAAUAGUCGCUAG [Fam3.1 aminoacylation ribozyme variant]”, the self-aminoacylation in the data set with biotinyl-Phe-oxazolone was found to be 2.31; in the data set with biotinyl-Trp-oxazolone it was 2. Regarding “AAGGAUGCUAAUAGUCGCAAG [Fam3.1 aminoacylation ribozyme variant]”, the figures for the self-aminoacylation in the data set with biotinyl-Phe-oxazolone and with biotinyl-Trp-oxazolone were 13.7 and 5.63, respectively.

Regarding “AAGGUUGCUAAUAGUCGUAAG [Fam3.1 aminoacylation ribozyme variant]”, the results for the self-aminoacylation in the data set with biotinyl-Phe-oxazolone and in the data set with biotinyl-Trp-oxazolone were 13.7 and 4.23, respectively. The like results for “AAGUGUGCUAAAAGUCGCAAG [Fam3.1 aminoacylation ribozyme variant]” were, in that order, 10.1 and 4.61. On to “AAGUGUGCUAACAGUCGCAAG [Fam3.1 aminoacylation ribozyme variant]”, for which the self-aminoacylation is 12.8 in the data set on biotinyl-Phe-oxazolone and 4.85 in the data set on biotinyl-Trp-oxazolone. Turning to “AAGUGUGCUAAUAGUCGCAAU [Fam3.1 aminoacylation ribozyme variant]”, the self-aminoacylation in the data set on biotinyl-Trp-oxazolone was determined as 2.01. Same read-out and setting: under “AAGUGUGCUAAUAGUCGCAGG [Fam3.1 aminoacylation ribozyme variant]” stands 2.17; under “AAGUGUGCUAAUCGUCGCAAG [Fam3.1 aminoacylation ribozyme variant]”, 2.44. On to “AAGUGUGCUCAUAGUCGCAAG [Fam3.1 aminoacylation ribozyme variant]”, for which the values for the self-aminoacylation in the data set on biotinyl-Phe-oxazolone and with biotinyl-Trp-oxazolone were 4.43 and 2.34, respectively. The like results for “AAGUUAGCUAAUAGGCGCAAG [Fam3.1 aminoacylation ribozyme variant]” were, in that order, 2.32 and 2.47. For “AAGUUAGCUAGUAGUCGCAAG [Fam3.1 aminoacylation ribozyme variant]”, the self-aminoacylation in the data set with biotinyl-Trp-oxazolone is 2.01. On the same count and under the same terms, to “AAGUUAGGUAAUAGUCGCAAG [Fam3.1 aminoacylation ribozyme variant]” belongs 2.11. For the sequence “AAGUUGGCUAAUAGUCGAAAG [Fam3.1 aminoacylation ribozyme variant]”, the self-aminoacylation is 2.91 with biotinyl-Phe-oxazolone and 2.27 with biotinyl-Trp-oxazolone.

As to “AAGUUGGCUAAUAGUCGCAAG [Fam3.1 aminoacylation ribozyme variant]”, the self-aminoacylation is 4.46 in the data set on biotinyl-Phe-oxazolone and 2.29 with biotinyl-Trp-oxazolone. The matching figures for “AAGUUUGCAAAUAGUCGCGAG [Fam3.1 aminoacylation ribozyme variant]”: 2.69 and 3.06. Consider “AAGUUUGCGAAUAGUCGCGAG [Fam3.1 aminoacylation ribozyme variant]”, for which the self-aminoacylation came to 8.44 with biotinyl-Phe-oxazolone and 2.14 in the data set on biotinyl-Trp-oxazolone.

For the sequence “AAGUUUGCUAAAAGUCGAAAG [Fam3.1 aminoacylation ribozyme variant]”, the self-aminoacylation in the data set on biotinyl-Phe-oxazolone was 4.76; in the data set on biotinyl-Trp-oxazolone it was 2.17. The like results for “AAGUUUGCUAAUAGUCCCAAG [Fam3.1 aminoacylation ribozyme variant]” were, in that order, 5.64 and 2.12. Take “AAGUUUGCUAAUAGUCUCAAG [Fam3.1 aminoacylation ribozyme variant]”: the self-aminoacylation in the data set on biotinyl-Phe-oxazolone worked out at 15.4; in the data set with biotinyl-Trp-oxazolone, 4.26. The matching figures for “AAGUUUGCUAAUUGUCGCAAA [Fam3.1 aminoacylation ribozyme variant]”: 8.83 and 2.49. “AAGUUUGCUAUUAGUCGCAGG [Fam3.1 aminoacylation ribozyme variant]”: the self-aminoacylation in the data set with biotinyl-Trp-oxazolone is 2.01.

Consider “AAGUUUGGUCAUAGUCGCAAG [Fam3.1 aminoacylation ribozyme variant]”, for which the figures for the self-aminoacylation with biotinyl-Phe-oxazolone and with biotinyl-Trp-oxazolone were 2.71 and 2.16, respectively.

Take “AAUGUUGCUAAUAGUCGCAAG [Fam3.1 aminoacylation ribozyme variant]”: the self-aminoacylation was 2.37 with biotinyl-Phe-oxazolone and 2.02 in the data set on biotinyl-Trp-oxazolone. The like results for “AAUUUUGCUGAUAGUCGCAAG [Fam3.1 aminoacylation ribozyme variant]” were, in that order, 2.05 and 2.31. The like results for “AUACUUCAAAAAAUCGGUCUG [Fam1A.1 aminoacylation ribozyme variant]” were, in that order, 4.26 and 3.25. The like results for “AUACUUCAAACAAUCGGGCUG [Fam1A.1 aminoacylation ribozyme variant]” were, in that order, 3.63 and 3.93. In the case of “AUUACCCGGGUCAUCGAGUUA [Fam2.1 aminoacylation ribozyme variant]”, the self-aminoacylation with biotinyl-Trp-oxazolone stood at 2.23. The same measure, in the same setting: to “AUUACCCUGGUCAUUGAGUAA [Fam2.1 aminoacylation ribozyme variant]” belongs 2.02.

In the case of “CCAAACUUCGAGCAAUCGGUC [Fam1B.1 aminoacylation ribozyme variant]”, the self-aminoacylation in the data set on biotinyl-Phe-oxazolone was 2.34. Turning to “CCACACUCCGAGCAAUCGGUC [Fam1B.1 aminoacylation ribozyme variant]”, in the data set with biotinyl-Trp-oxazolone, the self-aminoacylation came to 2.37.

Regarding “CCACACUGCAAGCCAUCGGUC [Fam1B.1 aminoacylation ribozyme variant]”, the self-aminoacylation in the data set with biotinyl-Trp-oxazolone was 2.76.

On to “CCACCCUUCAAGCCAUCGGUC [Fam1B.1 aminoacylation ribozyme variant]”, for which the self-aminoacylation in the data set on biotinyl-Trp-oxazolone came to 2.57. The same measure, in the same setting: under “CGACACUUCAAGCAAUCGGUU [Fam1B.1 aminoacylation ribozyme variant]” stands 2.37.

As to “CUACUCCAAUCAAUCGGUCUG [Fam1A.1 aminoacylation ribozyme variant]”, the self-aminoacylation in the data set with biotinyl-Phe-oxazolone is 2.36. With “CUACUGCAAACACUCGGUCUG [Fam1A.1 aminoacylation ribozyme variant]”, the self-aminoacylation in the data set on biotinyl-Phe-oxazolone stood at 5.64. Consider “CUACUUCAAACAAGCGGUCGG [Fam1A.1 aminoacylation ribozyme variant]”, for which the self-aminoacylation in the data set with biotinyl-Phe-oxazolone is 3.68. Take “CUACUUCAAACCAUCGGUCGG [Fam1A.1 aminoacylation ribozyme variant]”: the self-aminoacylation with biotinyl-Phe-oxazolone was 3.15.

Consider “CUAGUUCAAACAUUCGGUCUG [Fam1A.1 aminoacylation ribozyme variant]”, for which the self-aminoacylation with biotinyl-Phe-oxazolone was determined as 6.01. Still for that read-out and setting: under “CUAGUUCAGACAAUCGGUCUG [Fam1A.1 aminoacylation ribozyme variant]” stands 2.61; under “CUGCUUCAAACAAUCGUUCUG [Fam1A.1 aminoacylation ribozyme variant]”, 2.08; under “GAGUUUGCUGAUAGUCGCAAG [Fam3.1 aminoacylation ribozyme variant]”, 3.71. As for “GUACUACAAACAAUCGGUCUG [Fam1A.1 aminoacylation ribozyme variant]”, the self-aminoacylation with biotinyl-Trp-oxazolone is 2.14.

“GUUACCCUGGUCAUCGAUUGA [Fam2.1 aminoacylation ribozyme variant]”: in the data set on biotinyl-Phe-oxazolone, the self-aminoacylation is 2.77. On the same count and under the same terms, under “UUACUUCAAACAAGCGGUCUG [Fam1A.1 aminoacylation ribozyme variant]” stands 6.3.

With “UUACUUCAAACAUUCGGUCUG [Fam1A.1 aminoacylation ribozyme variant]”, the self-aminoacylation in the data set on biotinyl-Phe-oxazolone is 2.03.
